Where “and” joins values, the source holds several entries; their conditions need not be identical. Equal entries are not always repeated.
T1: human B7-H4 extracellular domain (human, UniProt Q7Z7D3 29-258)
T1 construct: For SPR it says only human B7-H4 ECD; also called Hu B7-H4 ECD; huB7-H4 ECD
T1 sequence: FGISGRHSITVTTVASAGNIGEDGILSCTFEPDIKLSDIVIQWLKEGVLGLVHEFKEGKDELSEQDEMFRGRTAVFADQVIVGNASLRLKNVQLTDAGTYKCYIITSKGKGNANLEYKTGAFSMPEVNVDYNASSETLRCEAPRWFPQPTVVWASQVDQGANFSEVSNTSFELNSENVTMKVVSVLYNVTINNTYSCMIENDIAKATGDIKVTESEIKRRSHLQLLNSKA

T2: human B7-H4 extracellular domain (human, UniProt Q7Z7D3 29-258)
T2 construct: Soluble ECD used as SPR analyte; also called huB7-H4 ECD; huB7-H4
T2 sequence: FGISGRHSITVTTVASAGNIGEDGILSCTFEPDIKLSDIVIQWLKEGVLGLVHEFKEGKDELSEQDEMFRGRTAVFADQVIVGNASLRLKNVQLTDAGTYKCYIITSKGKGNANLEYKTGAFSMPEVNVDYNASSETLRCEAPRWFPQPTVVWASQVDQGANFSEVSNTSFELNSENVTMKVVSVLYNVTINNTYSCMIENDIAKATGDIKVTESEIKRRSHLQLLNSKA


Molecular target: T1, human B7-H4 extracellular domain
Experiment: competition ELISA on coated huB7-H4 ECD; competitor biotinylated 0052 (by series, not given)
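Throughout, for IC50: tested antibody premixed 1:1 with biotinylated parental antibody, 2 h at room temperature on coated ECD, bound biotin detected via streptavidin-HRP, absorbance read at 450 nm.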

Binder | IC50
B7-H4 antibody 0383 (antibody, human IgG1, kappa, V domains shown) VH: QVQLQQWGAGLLKPSETLPLTCAVYGGSFSGYYWNWIRQPPGKGLEWIGEINHSGSATYNPSLKSRVTISVDTSKNHFSLKLSSVTAADTAVYFCARGLYNWNVDHWGQGTLVTVSS VL: DIQMTQSPSSLSASVGDRVTITCRASQGIRNDLGWYQQKPGKAPKRLIYAASSLQSGVPSRFSGSGSGTDFTLTISSLQPEDFATYYCLQHNAYPRTFGGGTKVEIKR | 7.17 nM
B7-H4 antibody 0384 (antibody, human IgG1, kappa, V domains shown) VH: QVQLQQWGAGLLKPSETLPLTCAVYGGSFSGYYWNWIRQPPGKGLEWIGEINHSGSATYNPSLKSRVTISVDTSKNHFSLKLSSVTAADTAVYFCARGLYNWNVDHWGQGTLVTVSS VL: DIQMTQSPSSLSASVGDRVTITCRASQGIRNDLGWYQQKPGKAPKRLIYAASSLQSGVPSRFSGSGSGTDFTLTISSLQPEDFATYYCLQHSSYPRTFGGGTKVEIKR | 6.91 nM
B7-H4 antibody 0386 (antibody, human IgG1, kappa, V domains shown) VH: QVQLQQWGAGLLKPSETLPLTCAVYGGSFSGYYWNWIRQPPGKGLEWIGEINHSGSATYNPSLKSRVTISVDTSKNHFSLKLSSVTAADTAVYFCARGLYNWNVDHWGQGTLVTVSS VL: DIQMTQSPSSLSASVGDRVTITCRASQGIRNDLGWYQQKPGKAPKRLIYAASSLQSGVPSRFSGSGSGTDFTLTISSLQPEDFATYYCLQHASYPRTFGGGTKVEIKR | 9.2 nM
B7-H4 antibody 0388 (antibody, human IgG1, kappa, V domains shown) VH: QVQLQQWGAGLLKPSETLPLTCAVYGGSFSGYYWNWIRQPPGKGLEWIGEINHSGSATYNPSLKSRVTISVDTSKNHFSLKLSSVTAADTAVYFCARGLYNWNVDHWGQGTLVTVSS VL: DIQMTQSPSSLSASVGDRVTITCRASQGIRNDLGWYQQKPGKAPKRLIYAASSLQSGVPSRFSGSGSGTDFTLTISSLQPEDFATYYCLQHNAYPYTFGQGTKLEIKR | 11.3 nM
B7-H4 antibody 0390 (antibody, human IgG1, kappa, V domains shown) VH: QVQLQQWGAGLLKPSETLPLTCAVYGGSFSGYYWNWIRQPPGKGLEWIGEINHSGSATYNPSLKSRVTISVDTSKNHFSLKLSSVTAADTAVYFCARGLYNWNVDHWGQGTLVTVSS VL: DIQMTQSPSSLSASVGDRVTITCRASQGIRNDLGWYQQKPGKAPKRLIYAASSLQSGVPSRFSGSGSGTDFTLTISSLQPEDFATYYCLQHQSYPYTFGQGTKLEIKR | 15.2 nM
B7-H4 antibody 0391 (antibody, human IgG1, kappa, V domains shown) VH: QVQLQQWGAGLLKPSETLPLTCAVYGGSFSGYYWNWIRQPPGKGLEWIGEINHSGSATYNPSLKSRVTISVDTSKNHFSLKLSSVTAADTAVYFCARGLYNWNVDHWGQGTLVTVSS VL: DIQMTQSPSSLSASVGDRVTITCRASQGIRNDLGWYQQKPGKAPKRLIYAASSLQSGVPSRFSGSGSGTDFTLTISSLQPEDFATYYCLQHASYPYTFGQGTKLEIKR | 13.6 nM
B7-H4 antibody 0279 (antibody, human IgG1, kappa, V domains shown) VH: EVQLVESGGGLVQPGGSLRLSCAVSGGSFSGYYWNWVRQAPGKGLEWIGEINHSGSATYNPSLKSRFTISVDTAKNSFYLQMNSLRAEDTAVYYCARGLYNWNVDHWGQGTLVTVSS VL: DIQMTQSPSSLSASVGDRVTITCRASQGIRNDLGWYQQKPGKAPKRLIYAASSLQSGVPSRFSGSGSGTEFTLTISSLQPEDFATYYCLQHNSYPRTFGGGTKVEIKR | 5.94 nM and 14.9 nM
B7-H4 antibody 0267 (antibody, human IgG1, kappa, V domains shown) VH: EVQLVESGGGLVQPGGSLRLSCAASGGSFSGYYWNWVRQAPGKGLEWIGEINHSGSTKYNPSLKSRFTISGDNAKNSFYLQMNSLRAEDTAVYYCVRGLYNWNVDSWGQGTLVTVSS VL: DIQMTQSPSSLSASVGDRVTITCRASQGIRNDLGWYQQKPGKAPKRLIYVASSLQSGVPSRFSGSGSGTEFTLTISSLQPEDFATYYCLQHNSYPYTFGQGTKLEIKR | 9.42 nM
B7-H4 antibody 0277 (antibody, human IgG1, kappa, V domains shown) VH: EVQLVESGGGLVQPGGSLRLSCAASGGSFSGYYWNWVRQAPGKGLEWVAEINHSGSATYNPSLKSRFTISRDNAKNSLYLQMNSLRAEDTAVYYCARGLYNWNVDHWGQGTLVTVSS VL: DIQMTQSPSSLSASVGDRVTITCRASQGIRNDLGWYQQKPGKAPKRLIYAASSLQSGVPSRFSGSGSGTEFTLTISSLQPEDFATYYCLQHNSYPRTFGGGTKVEIKR | 19 nM
B7-H4 antibody 0270 (antibody, human IgG1, kappa, V domains shown) VH: QVQLQQWGAGLLKPSETLSLTCAVYGGSFSGYYWNWIRQPPGKGLEWIGEINHSGSTKYNPSLKSRVTISGDTSKNQFSLKLNSVTAADTAVYYCVRGLYNWNVDSWGQGTLVTVSS VL: DIQMTQSPSSLSASVGDRVTITCRASQGIRNDLGWYQQKPGKAPKRLIYVASSLQSGVPSRFSGSGSGTDFTLTISSLQPEDFATYYCLQHNSYPYTFGQGTKLEIKR | 9.07 nM
B7-H4 antibody 0283 (antibody, human IgG1, kappa, V domains shown) VH: QVQLQQWGAGLLKPSETLPLTCAVYGGSFSGYYWNWIRQPPGKGLEWIGEINHSGSATYNPSLKSRVTISVDTSKNHFSLKLSSVTAADTAVYFCARGLYNWNVDHWGQGTLVTVSS VL: DIQMTQSPSSLSASVGDRVTITCRASQGIRNDLGWYQQKPGKAPKRLIYAASSLQSGVPSRFSGSGSGTDFTLTISSLQPEDFATYYCLQHNSYPRTFGGGTKVEIKR | 7.2 nM and 12.9 nM

Molecular target: T2, human B7-H4 extracellular domain
Experiment: SPR 37 C; IgG1 on anti-hFc chip, ECD analyte;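 note: antibodies captured, then B7-H4 ECD injected at five 3-fold dilutions from 300 nM, 65 s association and 600 s dissociation, fitted to a 1:1 Langmuir model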

Binder | Kd | koff | kon
B7-H4 antibody 1080 (antibody, human IgG1, kappa, V domains shown, IgG1 mAb format) VH: EVQLVESGGGLVQPGGSLRLSCAVSGGSFSGYYWNWIRQPPGKGLEWIGEINHSGSATYNPSLKSRVTISVDTAKNSLYLQMNSLRAEDTAVYYCARGLYNWNVDHWGQGTLVTVSS VL: DIQMTQSPSSLSASVGDRVTITCRASQGIRNDLGWYQQKPGKAPKRLIYAASSLQSGVPSRFSGSGSGTDFTLTISSLQPEDFATYYCLQHNAYPRTFGGGTKVEIKR | 13.8 nM | 0.0054 s⁻¹ | 392000 M⁻¹ s⁻¹
B7-H4 antibody 0934 (antibody, human IgG1, kappa, V domains shown, IgG1 mAb format) VH: EVQLVESGGGLVQPGGSLRLSCAVSGGSFSGYYWNWVRQAPGKGLEWIGEINHSGSATYNPSLKSRVTISVDTAKNSLYLQMNSLRAEDTAVYYCARGLYNWNVDHWGQGTLVTVSS VL: DIQMTQSPSSLSASVGDRVTITCRASQGIRNDLGWYQQKPGKAPKRLIYAASSLQSGVPSRFSGSGSGTDFTLTISSLQPEDFATYYCLQHSSYPRTFGGGTKVEIKR | 11.8 nM | 0.00539 s⁻¹ | 454000 M⁻¹ s⁻¹
B7-H4 antibody 1081 (antibody, human IgG1, kappa, V domains shown, IgG1 mAb format) VH: EVQLVESGGGLVQPGGSLRLSCAVSGGSFSGYYWNWIRQPPGKGLEWIGEIDHQGSTKYNPSLKSRVTISVDTAKNSFYLQMNSLRAEDTAVYYCARGLYNWNVDHWGQGTLVTVSS VL: DIQMTQSPSSLSASVGDRVTITCRASQGIRNDLGWYQQKPGKAPKRLIYAASSLQSGVPSRFSGSGSGTDFTLTISSLQPEDFATYYCLQHNAYPRTFGGGTKVEIKR | 33.4 nM | 0.00962 s⁻¹ | 288000 M⁻¹ s⁻¹
B7-H4 antibody 1083 (antibody, human IgG1, kappa, V domains shown, IgG1 mAb format) VH: EVQLVESGGGLVQPGGSLRLSCAASGGSFSGYYWNWIRQPPGKGLEWIGEINHSGSATYNPSLKSRVTISVDTAKNSFYLQMNSLRAEDTAVYYCARGLYNWNVDHWGQGTLVTVSS VL: DIQMTQSPSSLSASVGDRVTITCRASQGIRNDLGWYQQKPGKAPKRLIYAASSLQSGVPSRFSGSGSGTDFTLTISSLQPEDFATYYCLQHNAYPRTFGGGTKVEIKR | 22.6 nM | 0.0086 s⁻¹ | 381000 M⁻¹ s⁻¹
B7-H4 antibody 1113 (antibody, human IgG1, kappa, V domains shown, IgG1 mAb format) VH: EVQLLESGGGLVQPGGSLRLSCAASGFTFSSYAMSWVRQAPGKGLEWVSAISGGGGSTYYADSVKGRFTISRDNSKNTLYLQMNSLRAEDTAVYYCARDIQWYGESTLFDYWGQGTLVTVSS VL: DIQMTQSPSSLSASVGDRVTITCRASQSTRSWLAWYQQKPGKAPKLLIYKASSLEGGVPSRFSGSGSGTDFTLTISSLQPEDFATYYCQQYGSYSRTFGQGTKVEIKR | 4.31 nM | 0.00108 s⁻¹ | 251000 M⁻¹ s⁻¹
B7-H4 antibody 1115 (antibody, human IgG1, kappa, V domains shown, IgG1 mAb format) VH: EVQLLESGGGLVQPGGSLRLSCAASGFTFSSYAMSWVRQAPGKGLEWVSAISGGGGSTYYADSVKGRFTISRDNSKNTLYLQMNSLRAEDTAVYYCARDIQWYGESTLFDYWGQGTLVTVSS VL: DIQMTQSPSSLSASVGDRVTITCRASQSTRSWLAWYQQKPGKAPKLLIYKASSLESGVPSRFSGSGSGTDFTLTISSLQPEDFATYYCQQYGSYSRTFGQGTKVEIKR | 2.62 nM | 0.00116 s⁻¹ | 443000 M⁻¹ s⁻¹
B7-H4 antibody 1116 (antibody, human IgG1, kappa, V domains shown, IgG1 mAb format) VH: EVQLLESGGGLVQPGGSLRLSCAASGFTFSSYAMSWVRQAPGKGLEWVSAISGGGGSTYYADSVKGRFTISRDNSKNTLYLQMNSLRAEDTAVYYCARDIQWYGESTLFDYWGQGTLVTVSS VL: DIQMTQSPSSLSASVGDRVTITCRASQSTRSWLAWHQQKPGKAPKLLIYKASSLESGVPSRFSGSGSGTDFTLTISSLQPEDFATYYCQQYGSYSRTFGQGTKVEIKR | 2.05 nM | 0.00126 s⁻¹ | 612000 M⁻¹ s⁻¹
B7-H4 antibody 1117 (antibody, human IgG1, kappa, V domains shown, IgG1 mAb format) VH: EVQLLESGGGLVQPGGSLRLSCAASGFTFSSYAMSWVRQAPGKGLEWVSAISGGGGSTYYADSVKGRFTISRDNSKNTLYLQMNSLRAEDTAVYYCARDIQWYGESTLFDYWGQGTLVTVSS VL: DIQMTQSPSSLSASVGDRVTITCRASQSTRSWLAWLQQKPGKAPKLLIYKASSLESGVPSRFSGSGSGTDFTLTISSLQPEDFATYYCQQYGSYSRTFGQGTKVEIKR | 1.54 nM | 0.000949 s⁻¹ | 620000 M⁻¹ s⁻¹

Reference: patent US20220017622A1 (Pfizer, published 2022)
